# Biological target: T1, OxyR (Pseudomonas aeruginosa (PAO1?)) (UniProt Q9HTL4)
# T1 sequence: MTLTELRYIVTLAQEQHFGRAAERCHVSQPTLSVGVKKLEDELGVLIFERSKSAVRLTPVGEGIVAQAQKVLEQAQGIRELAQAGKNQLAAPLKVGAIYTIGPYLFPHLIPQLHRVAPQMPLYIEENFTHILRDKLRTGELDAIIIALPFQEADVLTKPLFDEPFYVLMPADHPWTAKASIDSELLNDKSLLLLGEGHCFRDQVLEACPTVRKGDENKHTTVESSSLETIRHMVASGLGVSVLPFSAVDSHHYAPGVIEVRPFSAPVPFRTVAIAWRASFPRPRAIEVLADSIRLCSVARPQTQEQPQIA
# Assay: EMSA
# Settings: 20 mM Tris-HCl pH 7.0, 50 mM KCl, 1 mM EDTA, 5% glycerol, 50 ug/ml BSA, 5 ug/ml calf thymus DNA, 0.5 ug/ml poly[dI-dC], 50 ug/ml salmon sperm DNA, 100 mM DTT …
sequence,measurement,value
AAGTCGGTGATGGCCTCGCCGGCCAGGCGGCGCAGGCGCTTCTGCAGTTTGTTCTGATTGACCGAAAGGGTGCCCATGGTGCTCTGGAATCCGGGTGTTCGAGGAGAAAAGCTGGCTATTTTACGCACAAAGCGACGCCGACCCCAGCCCCTCCCGACGCCCGATGCTAGTCTTGCCCCATGACTCCCGACCTCGACCACCGCCTCGACCT (double strand) [ttcA promoter fragment],binding,binds

# Source: paper PMC6082896
